Experiments:
[1] = molecular target: T1, pol30-Rad27E6 of the mutant strain (yeast, UniProt P15873 1-258, IDCL DIDADFLKIEEL to DGDYDILKIREL); test: ELISA; PCNA captured from crude yeast extract (3 mg/ml) on plates coated with anti-PCNA antibody; bound GFP-tagged partner detected by anti-GFP, normalised to the anti-His signal of PCNA; details: partners not purified
T1 construct: PCNA (POL30), yeast; source: yeast, sole source of PCNA under the native POL30 promoter, in crude cell extract
T1 sequence: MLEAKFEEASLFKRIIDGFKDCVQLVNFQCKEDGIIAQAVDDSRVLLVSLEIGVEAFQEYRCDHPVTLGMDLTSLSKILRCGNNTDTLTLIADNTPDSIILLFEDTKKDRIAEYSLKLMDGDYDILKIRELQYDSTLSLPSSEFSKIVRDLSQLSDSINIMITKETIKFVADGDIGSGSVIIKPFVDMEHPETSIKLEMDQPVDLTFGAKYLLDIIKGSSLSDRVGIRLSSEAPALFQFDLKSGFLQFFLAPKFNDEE

[2] = molecular target: the molecule itself; test: SEC; Superdex 200 10/300 GL, activity buffer (300 mM NaCl, 50 mM Tris-HCl, pH 8), monomer concentrations of 3–8 µM
[3] = molecular target: T2, pol30-Rad30E2 of the mutant strain (yeast, UniProt P15873 1-258, IDCL DIDADFLKIEEL to DDDWDFLKILEL); test: ELISA; PCNA captured from crude yeast extract (3 mg/ml) on plates coated with anti-PCNA antibody; bound GFP-tagged partner detected by anti-GFP, normalised to the anti-His signal of PCNA; details: partners not purified
T2 construct: PCNA (POL30), yeast; source: yeast, sole source of PCNA under the native POL30 promoter, in crude cell extract
T2 sequence: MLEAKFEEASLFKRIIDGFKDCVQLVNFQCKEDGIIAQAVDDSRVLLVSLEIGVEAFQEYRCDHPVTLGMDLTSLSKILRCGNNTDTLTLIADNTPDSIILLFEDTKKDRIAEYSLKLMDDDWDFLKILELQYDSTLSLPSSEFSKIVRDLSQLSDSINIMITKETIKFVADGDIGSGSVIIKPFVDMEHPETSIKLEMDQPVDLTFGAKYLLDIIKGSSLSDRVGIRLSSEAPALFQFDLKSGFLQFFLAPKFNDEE

B1: GFP-tagged Rad27 (natural protein, yeast, UniProt P26793 1-382, looked up)
chain: MGIKGLNAIISEHVPSAIRKSDIKSFFGRKVAIDASMSLYQFLIAVRQQDGGQLTNEAGETTSHLMGMFYRTLRMIDNGIKPCYVFDGKPPDLKSHELTKRSSRRVETEKKLAEATTELEKMKQERRLVKVSKEHNEEAQKLLGLMGIPYIIAPTEAEAQCAELAKKGKVYAAASEDMDTLCYRTPFLLRHLTFSEAKKEPIHEIDTELVLRGLDLTIEQFVDLCIMLGCDYCESIRGVGPVTALKLIKTHGSIEKIVEFIESGESNNTKWKIPEDWPYKQARMLFLDPEVIDGNEINLKWSPPKEKELIEYLCDDKKFSEERVKSGISRLKKGLKSGIQGRLDGFFQVVPKTKEQLAAAAKRAQENKKLNKNKNKVTKGRR
notes: Rad27, yeast, tagged at its natural locus; source: yeast, GFP-tagged at the natural locus, in crude cell extract; not shown: GFP, C-terminal, kept
- increase in the amount of complex relative to the POL30 strain [1]: 17%

B2: proliferating cell nuclear antigen (PCNA), 6×Histidine-tagged (natural protein, yeast)
chain: MLEAKFEEASLFKRIIDGFKDCVQLVNFQCKEDGIIAQAVDDSRVLLVSLEIGVEAFQEYRCDHPVTLGMDLTSLSKILRCGNNTDTLTLIADNTPDSIILLFEDTKKDRIAEYSLKLMDIDADFLKIEELQYDSTLSLPSSEFSKIVRDLSQLSDSINIMITKETIKFVADGDIGSGSVIIKPFVDMEHPETSIKLEMDQPVDLTFGAKYLLDIIKGSSLSDRVGIRLSSEAPALFQFDLKSGFLQFFLAPKFNDEE
notes: PCNA (POL30), yeast; cloned into pET28 by NdeI and XhoI; also called WT PCNA; Pol30p; source: E. coli BL21, purified (Ni-NTA)
- stoichiometry N [2]: 3

B3: GFP-tagged Rad30 (natural protein, yeast, UniProt Q04049 1-632, looked up)
chain: MSKFTWKELIQLGSPSKAYESSLACIAHIDMNAFFAQVEQMRCGLSKEDPVVCVQWNSIIAVSYAARKYGISRMDTIQEALKKCSNLIPIHTAVFKKGEDFWQYHDGCGSWVQDPAKQISVEDHKVSLEPYRRESRKALKIFKSACDLVERASIDEVFLDLGRICFNMLMFDNEYELTGDLKLKDALSNIREAFIGGNYDINSHLPLIPEKIKSLKFEGDVFNPEGRDLITDWDDVILALGSQVCKGIRDSIKDILGYTTSCGLSSTKNVCKLASNYKKPDAQTIVKNDCLLDFLDCGKFEITSFWTLGGVLGKELIDVLDLPHENSIKHIRETWPDNAGQLKEFLDAKVKQSDYDRSTSNIDPLKTADLAEKLFKLSRGRYGLPLSSRPVVKSMMSNKNLRGKSCNSIVDCISWLEVFCAELTSRIQDLEQEYNKIVIPRTVSISLKTKSYEVYRKSGPVAYKGINFQSHELLKVGIKFVTDLDIKGKNKSYYPLTKLSMTITNFDIIDLQKTVVDMFGNQVHTFKSSAGKEDEEKTTSSKADEKTPKLECCKYQVTFTDQKALQEHADYHLALKLSEGLNGAEESSKNLSFGEKRLLFSRKRPNSQHTATPQKKQVTSSKNILSFFTRKK
notes: Rad30, yeast, tagged at its natural locus; source: yeast, GFP-tagged at the natural locus, in crude cell extract; not shown: GFP, C-terminal, kept
- increase in the amount of complex relative to the POL30 strain [3]: 70%
